Measured values as given in US20160130327A1 (Merck Sharp & Dohme, published 2016).

B1: 57.4 (antibody, V domains shown)
VH: QSLEESGGGLVKPGGTLTLTCTASGFSFSSVYDMSWVRQAPGKGLEWIASIVTGSRTTWYASWAKGRFTVSKTSSTTVTLQMTSLTAADTATYFCARGEYGHDGYVDGTMGLGLWGPGTLVTISS
VL: ELDLTQTPASVEAAVGGTVAIKCQASQSIRRHLSWYQQKPGQRPKLLIYGASNLASGVSSRFKGSGSGTEFTLTISDLECADAATYYCQCTYGVGFSSTYGDAFGGGTELEIL
notes: rabbit hybridoma mAb (not the humanized version); also called clone 57.4; mAb 57.4
B2: 70.7 (antibody, V domains shown)
VH: QSVEESRGRLVTPGTPLTLTCTASGFSLSSYHMIWVRQAPGKGLEWIGYINYNNNPYYATWAKGRFTISRTSTTVALKITSPTTEDSATYFCARAAGNYYVGALNLWGPGTLVTISS
VL: ERDMTQTPASVEVAVGGTVTIKCQASQSIGNLLAWYQQKPGQRPKLLIYDASTLASGVPSRFKGSGSGTEFTLTISGVQCADAATYYCQQGYMITNVENAFGGGTEVVVK
notes: rabbit hybridoma mAb; also called clone 70.7
B3: 316.2 (antibody, V domains shown)
VH: QSVKESEGRLVTPGTPLTLTCTASGFSLSSYHMIWVRQAPGKGLEWIGYINNNDNPYYATWAKGRFTISRTSTTVALKITSPTTKDTATYFCARAAGNYYVGALNLWGPGTLVTISS
VL: ELVLTQTPASVEVAVGGTVTIKCQASQTIGNLLGWYQQKPGRPPKLLIYDASTLASGVPSRFKGSGSATEFTLTIRGVQCDDAATYYCQQGYMITNVENAFGGGTEVVVK
notes: rabbit hybridoma mAb; also called clone 316.2
B4: 270.7 (antibody, V domains shown)
VH: QSVEESGGRLVTPGTPLALTCTASRFSLSSNHMIWVRQAPGKGLEWIGYINYNNNPYYATWAKGRFTISRTSTTVALKITSPTTEDTATYFCARAAGNYYVGALNLWGPGTLVTISS
VL: ELVMTQTPASVEVAVGGTVTIKCQASQSIGNLLAWYQQEPGQRPKLLIYDASTLASGVPSRFKGSGSGTEFTLTISGVQCADAATYYCQQGYMITNVENAFGGGTNVEIK
notes: rabbit hybridoma mAb; also called clone 270.7
B5: 350.1 (antibody, V domains shown)
VH: QSLEESGGDLVKPGASLTLTCTASGFSFSNSYYMCWVRQAPGKGLEWIVCIYAGSSGFTYYANWAKGRFTVSKTSSTTVTLQMTSLTAADTATYFCARDRGYYTYGYAGYGYGMDLWGPGTLVTISS
VL: ELDMTQTPSPVSTAVGGTVSISCQSGQNVWTNDYLSWYQQKPGQPPKLLIYRASTLASGVPSRFKGSGSGTQFTLTISDVQCDDAATYYCGGTFLSNGDNGFGGGTEVVVK
notes: rabbit hybridoma mAb; also called clone 350.1; mAb 350.1
B6: 210.4 (antibody, V domains shown)
VH: QSVEESGGRLVTPGTPLTLTCTVSGFSLSTNAMSWVRQAPGKGLEWIGYIWSGGSTYYASWAKGRFAISKTSTTVDLKITSPTTEDTATYFCAKNGDNGQLDLWGQGTLVTVSS
VL: ELVLTQTPSPVSAAVGGTVTINCQTSQSLYNNNFLSWYQQKPGQPPKLLIYKASTLESGVPSRFKGSGSGTQFTLTISGVQCDDAATYYCQGEFSCSSADCNAFGGGTEVVVK
notes: rabbit hybridoma mAb; also called clone 210.4
B7: 276.10 (antibody, V domains shown)
VH: QSLEESGGDLVQPEGSLTLTCTASGFSFSGSYYMCWVRQAPGTGLEWIACIDGDLSGSAYYANWAKGRFTISGTSSTTVTLQVTSLTAADTATYFCAREGPVGVGSIYLGFDLWGPGTLVTISS
VL: ELDLTQTPASVEVPVGGTVTIKCQASHNINTYLSWYQQKPGQPPKLLIYRASDLASGVSSRFSGSGSGTQFTLTISGVECADAATYYCQQGFNSLNVENVFGGGTEVVVK
notes: rabbit hybridoma mAb (not the humanized version); also called clone 276.10
B8: 124.4 (antibody, V domains shown)
VH: QSLEESGGRLVTPGTPLTLTCTVSGFSLSSCNMGWVRQAPGEGLEWIGYIAASGDAFYASWAKGRFTISKTSSTTVDLRITSPTTEDTAAYFCARGSYAAYNAWDLWGPGTLVTVSS
VL: ELDMTQTASPVSAAVGGTVTINCQSSQSVYNKNYLSWYQQKPGQPPKLLIYGASTLPSGVPSRFKGSGSGTQFTLTISEVQCDDAATYYCQGYYSGYIYAFGGGTEVVVK
notes: rabbit hybridoma mAb; also called clone 124.4
B9: 324.4 (antibody, V domains shown)
VH: QSVKESEGRLVTPGTPLTLTCTVSGFSPSSYNMGWVRQAPGEGLEWIGYISTSGNTFYASWAKGRFTISKTSTTVDLRITSPTTEDTATYFCARGSYVAYNAWDLWGPGTLVTISS
VL: ELDLTQTASPVSAAVGGTVTINCQSSQSVYNNNYLSWYQQKPGQPPKLLIYGASTLASGVPSRFKGSGSGTQFTLTISEVQCDDAATYYCQGYYSGYIYAFGGGTEVVVK
notes: rabbit hybridoma mAb; also called clone 324.4
B10: 58.5 (antibody, V domains shown)
VH: QSLEESGGRLVTPGGSLTLTCTVSGFSLSAYSVSWVRQAPGKGLEWIGIIGHSGNTYYASWAKGRFTISKTSTTVDLKITSLTTEDTATYFCAREDYRYGDYGYYWDFNFWGPGTLVTISS
VL: ELDLTQTASPVSAPVGGTVTINCQASQNIYSNLAWYQQKPGQPPKLLIYGASTLASGVSSRFKGSRSGTEFTLTISDLECADAATYYCQSYVYSSSTADTFGGGTEVVVK
notes: rabbit hybridoma mAb (not the humanized version); also called clone 58.5
B11: 223.4 (antibody, V domains shown)
VH: QSLEESGGRLVTPGTPLTLTCTVSGFSLSAYSVSWVRQAPGKGLEWIGIIGHSGNTYYANWAKGRFTISKTSTTVDLKITSLTIEDTATYFCAREDYRYGDYGYYWDFNFWGPGTLVTISS
VL: ELVMTQTPSPVSAPVGGTVTISCQASRSVYNENYVAWFQHRPGQPPKLLIYTTSILASGVPSRFKGRGSGTQFTLTISDVQCDDAATYYCAGDYDDNEENAFGGGTELEIL
notes: rabbit hybridoma mAb; also called clone 223.4
B12: 212.6 (antibody, V domains shown)
VH: QSLEESGGRLVTPGTPLTLTCTVSGFSLSSYAMSWVRQAPGKGLEWIGIIGSSGNTYYASWAKGRFTISKTSTTVDLKITSPTTEDTATYFCARGGYSYDDYTPFDLWGPGTLVTVSS
VL: ELVLTQSPSLSASLGTTARLTCTLSTGYSVGKYPLVWLQQVPGRPPRYLLTYHTEEFKHQGSGVHSRFSGSKDTSENAGVLSISGLQPEDEADYYCATAHATESSLHYVFGGGTQLTVT
notes: rabbit hybridoma mAb; also called clone 212.6
B13: 347.3 (antibody, V domains shown)
VH: QSLEESEGRLVTPGTPLTLTCTVSGIDLSTYAMNWVRQAPGKGLEWIGIIGSSGGAYYASWAKGRCTISKTSTTVDLKITSPTTEDTATYFCAVSLYTYDDYADYFLWGPGTLVTISS
VL: ELVLTQSPSLSASLGTTARLTCTLSTGYSVGKYPLVWLQQVPGRPPRYLLTYHTEEFKHQGSGVHSRFSGSKDTSENSFVLRIFGLQPEDEADYYCVTAHPTESSLHYVFGGGTQLTVT
notes: rabbit hybridoma mAb; also called clone 347.3
B14: 240.8 (antibody, V domains shown)
VH: QSVEESGGGLVTPGGTLTLTCGVSGIDLSANEMGWVRQAPGEGLEWIGTLSYHNIPHYATWAKGRFTISKTSTTVDLKITSPTSADTATYFCGRVFTSTSFDPWGPGTLVTISS
VL: ELVMTHPPASVSAPVGGTVTIKCQASHNIGSRLPWYQQEPGQPPKLLIYRTSTLASGVPSRFTGSGYGTEFTLTISDLECADAATYYCQDHDDISHAFGGGTNVEIK
notes: rabbit hybridoma mAb; also called clone 240.8

Tests used:
[1] = biological target: T1, revertant virus (AD169 CMV with the pentameric gH complex restored); assay: cell-based or functional assay
recombinant gB = biological target: T2, recombinant gB (human cytomegalovirus (CMV), UniProt P06473 32-700); assay: EIA on recombinant gB
T2 construct: also called gB protein; recombinant gB antigen
T2 sequence (P06473 32-700 limits assumed): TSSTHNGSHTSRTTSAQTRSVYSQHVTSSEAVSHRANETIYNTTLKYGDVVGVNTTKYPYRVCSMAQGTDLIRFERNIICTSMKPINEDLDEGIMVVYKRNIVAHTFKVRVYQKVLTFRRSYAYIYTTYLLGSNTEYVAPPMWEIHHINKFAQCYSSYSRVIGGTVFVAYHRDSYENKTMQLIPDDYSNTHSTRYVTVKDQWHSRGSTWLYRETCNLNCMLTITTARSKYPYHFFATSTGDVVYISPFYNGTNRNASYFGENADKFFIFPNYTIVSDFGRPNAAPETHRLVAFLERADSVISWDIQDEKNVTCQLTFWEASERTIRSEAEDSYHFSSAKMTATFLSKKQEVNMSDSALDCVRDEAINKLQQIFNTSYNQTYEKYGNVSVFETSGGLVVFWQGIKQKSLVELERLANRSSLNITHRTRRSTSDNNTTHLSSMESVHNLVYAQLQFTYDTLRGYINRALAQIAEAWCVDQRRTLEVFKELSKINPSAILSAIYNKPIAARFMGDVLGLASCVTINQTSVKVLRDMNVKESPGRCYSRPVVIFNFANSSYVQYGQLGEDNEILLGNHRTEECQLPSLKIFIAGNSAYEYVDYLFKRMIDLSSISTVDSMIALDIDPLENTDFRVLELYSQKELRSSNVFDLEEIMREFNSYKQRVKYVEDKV

[2] = biological target: T1, revertant virus (AD169 CMV with the …); assay: antibody-titration EIA, coated revertant virions

Binder | Neutralization in ARPE-19 cells EC50 [1] | Neutralization in MRC-5 cells EC50 [1] | binding result (recombinant gB) | EC50 [2]
B1 | 0.01 µg/mL | 100 µg/mL | no binding (tested: 1 µg/ml) | 0.09 µg/mL
B2 | 0.03 µg/mL | 0.09 µg/mL | no binding (tested: 1 µg/ml) | 1.46 µg/mL
B3 | 0.02 µg/mL | 0.08 µg/mL | no binding (tested: 1 µg/ml) | 1.06 µg/mL
B4 | 0.02 µg/mL | 0.06 µg/mL | no binding (tested: 1 µg/ml) | 0.68 µg/mL
B5 | 100 µg/mL | 100 µg/mL | – | 0.02 µg/mL
B6 | 100 µg/mL | 100 µg/mL | – | 0.03 µg/mL
B7 | 0.01 µg/mL | 100 µg/mL | no binding (tested: 1 µg/ml) | 0.25 µg/mL
B8 | 0.05 µg/mL | 0.08 µg/mL | no binding (tested: 1 µg/ml) | 1.72 µg/mL
B9 | 0.1 µg/mL | 0.21 µg/mL | no binding (tested: 1 µg/ml) | 4.09 µg/mL
B10 | 0.02 µg/mL | 100 µg/mL | no binding (tested: 1 µg/ml) | 0.59 µg/mL
B11 | 0.06 µg/mL | 100 µg/mL | no binding (tested: 1 µg/ml) | 1.54 µg/mL
B12 | 3.71 µg/mL | 100 µg/mL | – | 52.9 µg/mL
B13 | 0.03 µg/mL | 100 µg/mL | no binding (tested: 1 µg/ml) | 0.34 µg/mL
B14 | 0.79 µg/mL | 100 µg/mL | – | 2.6 µg/mL
